The values below come from patent US20240352133A1.

For orientation: Kd means the concentration at which binding is half-saturated. The koff is a measure of how fast the partners let go of each other. By kon is commonly meant the second-order rate constant of association.

Assay [1] concerns the target Recombinant human his-tagged IGF 1R extracellular domain protein (human) (UniProt P08069). In words: SPR, captured antibody, pH 7.4. A general note: SPR reads the build-up and loss of mass on a sensor chip optically.
For assay [2] the target is unchanged. In words: SPR, captured antibody, dissociation at pH 6.

Numbering of substitutions follows the chain as printed.

B1: VRDN-03038 (antibody, V domains shown)
VH: QVELVESGGGVVQPGRSQRLSCAASGFTFSSYGMHWVRQAPGKGLEWVAIIWFDGSSTYYADSVRGRFTISRDNSKNTLYLQMNSLRAEDTAVYFCARELGRRYFDLWGRGTLVSVSS
VL: EIVLTQSPATLSLSPGERATLSCHASQSVSSYLAWYQQKPGQAPRLLIYDASKRATGIPARFSGSGSGTDFTLTISSLEPEDFAVYYCQQRSKWPPWTFGQGTKVESK
As for B1, in assay [1], the dissociation constant (Kd) amounted to 1.72 nM, the dissociation rate constant (koff) worked out at 0.000167 s⁻¹ and the on-rate constant (kon) amounted to 96900 M⁻¹ s⁻¹. Moreover, in assay [2], the Kd is 1.4 nM, the koff turned out to be 0.000115 s⁻¹ and the kon came to 82000 M⁻¹ s⁻¹.

B2: VRDN-03044 (antibody, V domains shown)
VH: B1 VH
VL: B1 VL with H24R, S30H
As for B2, in assay [1], the equilibrium dissociation constant (Kd) is 1.96 nM, the koff turned out to be 0.000192 s⁻¹ and the association rate constant (kon) stood at 98400 M⁻¹ s⁻¹. Also, in assay [2], the Kd is 3.79 nM, the koff was found to be 0.000217 s⁻¹ and the kon came to 57300 M⁻¹ s⁻¹.

B3: VRDN-03046 (antibody, V domains shown)
VH: B1 VH
VL: B1 VL with H24R, Y32H
In the case of B3, in assay [1], the Kd was found to be 1.58 nM, the dissociation rate constant (koff) came to 0.000162 s⁻¹ and the on-rate constant (kon) was 103000 M⁻¹ s⁻¹. Besides, in assay [2], the Kd amounted to 1.87 nM, the koff amounted to 0.000159 s⁻¹ and the kon came out at 84800 M⁻¹ s⁻¹.

B4: VRDN-03047 (antibody, V domains shown)
VH: B1 VH
VL: B1 VL with H24R, L33H
B4: in assay [1], the equilibrium dissociation constant (Kd) amounted to 2.95 nM, the koff worked out at 0.000282 s⁻¹ and the kon came to 95700 M⁻¹ s⁻¹. Further, in assay [2], the dissociation constant Kd came out at 3.77 nM, the koff worked out at 0.000294 s⁻¹ and the kon was found to be 78100 M⁻¹ s⁻¹.

B5: VRDN-03045 (antibody, V domains shown)
VH: B1 VH
VL: B1 VL with H24R, S31H
For the molecule B5, in assay [1], the dissociation constant (Kd) is 1.29 nM, the koff is 0.000135 s⁻¹ and the kon is 105000 M⁻¹ s⁻¹. In assay [2], the dissociation constant Kd turned out to be 0.624 nM, the koff came to 5.02e-05 s⁻¹ and the kon came to 80500 M⁻¹ s⁻¹.

B6: VRDN-03042 (antibody, V domains shown)
VH: B1 VH
VL: B1 VL with H24R, S28H
As for B6, in assay [1], the dissociation constant Kd was 1.53 nM, the dissociation rate constant (koff) was 0.000172 s⁻¹ and the kon was determined as 112000 M⁻¹ s⁻¹. Further, in assay [2], the Kd came out at 1.2 nM, the dissociation rate constant (koff) turned out to be 9.44e-05 s⁻¹ and the kon was 78400 M⁻¹ s⁻¹.

B7: VRDN-03041 (antibody, V domains shown)
VH: B1 VH
VL: B1 VL with H24R, Q27H
For B7, in assay [1], the equilibrium dissociation constant (Kd) was 3.16 nM, the koff worked out at 0.0003 s⁻¹ and the kon came to 94900 M⁻¹ s⁻¹. In assay [2], the equilibrium dissociation constant (Kd) came to 0.556 nM, the off-rate constant (koff) is 3.61e-05 s⁻¹ and the kon turned out to be 65000 M⁻¹ s⁻¹.

B8: VRDN-03050 (antibody, V domains shown)
VH: B1 VH
VL: B1 VL with H24R, A51H
On to B8, for which, in assay [1], the Kd was 2.03 nM, the koff came out at 0.00021 s⁻¹ and the kon turned out to be 103000 M⁻¹ s⁻¹. Moreover, in assay [2], the equilibrium dissociation constant (Kd) was determined as 2.25 nM, the koff turned out to be 0.00017 s⁻¹ and the kon came to 75800 M⁻¹ s⁻¹.

B9: VRDN-03049 (antibody, V domains shown)
VH: B1 VH
VL: B1 VL with H24R, D50H
In the case of B9, in assay [1], the Kd came out at 1.56 nM, the koff turned out to be 0.000183 s⁻¹ and the kon was 117000 M⁻¹ s⁻¹. In assay [2], the dissociation constant (Kd) was determined as 2.7 nM, the koff was 0.000201 s⁻¹ and the on-rate (kon) stood at 74300 M⁻¹ s⁻¹.

B10: VRDN-03039 (antibody, V domains shown)
VH: B1 VH
VL: B1 VL with H24R, A25H
For the molecule B10, in assay [1], the dissociation constant Kd was found to be 11.3 nM, the koff was determined as 0.00332 s⁻¹ and the on-rate (kon) is 294000 M⁻¹ s⁻¹. In assay [2], the Kd is 14.3 nM, the koff is 0.00563 s⁻¹ and the on-rate (kon) worked out at 394000 M⁻¹ s⁻¹.

B11: VRDN-03043 (antibody, V domains shown)
VH: B1 VH
VL: B1 VL with H24R, V29H
Take B11: in assay [1], the Kd was found to be 22.4 nM, the koff was 0.0111 s⁻¹ and the on-rate (kon) is 493000 M⁻¹ s⁻¹. For the same molecule, in assay [2], the Kd is 18.2 nM, the koff stood at 0.0253 s⁻¹ and the kon came out at 1.39e+06 M⁻¹ s⁻¹.

B12: VRDN-03115 (antibody, V domains shown)
VH: QVQLVESGGGVVQPGRSLRLSCAASGFTFSDHYMDWVRQAPGKGLEWVAIIWFDGSSKYYPGSVKGRFTISRDNSKNTLYLQMNSLRAEDTAVYYCARELGRRYFDIWGRGTLVTVSS
VL: EIVMTQSPATLSVSPGERATLSCRASQGVSSYLAWYQQKPGQAPRLLIYGASTRATGIPARFSGSGSGTEFTLTISSLQSEDFAVYYCQQRSRWPPWTFGQGTKLEIK
For the molecule B12, in assay [2], the dissociation constant Kd was found to be 1.21 nM, the koff came to 0.000297 s⁻¹ and the kon amounted to 246000 M⁻¹ s⁻¹.

B13: VRDN-03135 (antibody, V domains shown)
VH: B12 VH with Q1E, S30D, H32Y, Y33A, D35H, P61A, G62D, R110Q
VL: B12 VL with Y32N, Q101G
With B13, in assay [1], the dissociation constant Kd came to 4.06 nM, the off-rate (koff) amounted to 0.000414 s⁻¹ and the association rate constant (kon) amounted to 102000 M⁻¹ s⁻¹.

B14: VRDN-03134 (antibody, V domains shown)
VH: EVQLVESGGGVVQPGRSLRLSCAASGFTFSSYSMHWVRQAPGKGLEWVAVIWYDGSSKYYADSVKSRFTISRDNSKNTLYLQMNSLRAEDTAVYYCARELGRRYFDIWGQGTLVTVSS
VL: B12 VL with Y32N, Q101G
On to B14, for which, in assay [1], the Kd was determined as 4.89 nM, the koff amounted to 0.0012 s⁻¹ and the kon stood at 245000 M⁻¹ s⁻¹.

B15: VRDN-03136 (antibody, V domains shown)
VH: B14 VH with S30D, S31D, S33T, V50I, Y53F, S66G
VL: B12 VL with Y32N, Q101G
B15: in assay [1], the dissociation constant Kd turned out to be 2.84 nM, the off-rate constant (koff) turned out to be 0.000253 s⁻¹ and the kon amounted to 89100 M⁻¹ s⁻¹.

B16: VRDN-03138 (antibody, V domains shown)
VH: B14 VH with S30D, S31D, S33T, S66G
VL: B12 VL with Y32N, Q101G
For the molecule B16, in assay [1], the Kd is 8.75 nM, the off-rate (koff) came to 0.00433 s⁻¹ and the on-rate constant (kon) is 495000 M⁻¹ s⁻¹.

B17: VRDN-03133 (antibody, V domains shown)
VH: B14 VH with Q110R
VL: B12 VL with Y32N, Q101G
As to B17, in assay [1], the equilibrium dissociation constant (Kd) was 6.51 nM, the koff is 0.00228 s⁻¹ and the association rate constant (kon) amounted to 350000 M⁻¹ s⁻¹.

B18: VRDN-03139 (antibody, V domains shown)
VH: B14 VH with S31D, S33T, V50I, Y53F
VL: B12 VL with Y32N, Q101G
On to B18, for which, in assay [1], the Kd was determined as 2.46 nM, the koff amounted to 0.000262 s⁻¹ and the on-rate (kon) came to 107000 M⁻¹ s⁻¹.

B19: VRDN-03137 (antibody, V domains shown)
VH: B14 VH with S30D, S31D, S33A, S66G
VL: B12 VL with Y32N, Q101G
For the molecule B19, in assay [1], the Kd stood at 15.1 nM, the koff was 0.0142 s⁻¹ and the on-rate constant (kon) stood at 940000 M⁻¹ s⁻¹.
